Earlier results in paper PMC4041481.

Target: His37 (UniProt position 37, IIGILHLILWI)
Details: M2 tetramer assembled in a lipid bilayer

Substance: Matrix protein 2 (M2 proton channel) (Influenza A virus (strain not stated))
- pKa: <5.0
